What is called EC50 is the concentration giving half of the maximal effect. For orientation: EC50 (read off the curve) means the concentration that produces a half-maximal response.

Test [1] has as its target mixture of three Der p 2 specific recombinant human IgE clones H10, H12, P4E (human) (UniProt P01854). Description: RBL-SX38 IgE displacement, FACS.
Test [2] concerns the target IgE on basophils of allergic donors (human) (UniProt P01854). Description: displacement of IgE from FcεRI on basophils, whole blood of an allergic donor, flow cytometry of surface IgE [panel B].
Test [3] has the same target. The test can be described thus: displacement of IgE from FcεRI on basophils, whole blood of an allergic donor, flow cytometry of surface IgE [panel C]. On the technique in general: A flow cytometer gives signals particle by particle.

Sequence of IgE on basophils of allergic donors (human) (P01854 1-428): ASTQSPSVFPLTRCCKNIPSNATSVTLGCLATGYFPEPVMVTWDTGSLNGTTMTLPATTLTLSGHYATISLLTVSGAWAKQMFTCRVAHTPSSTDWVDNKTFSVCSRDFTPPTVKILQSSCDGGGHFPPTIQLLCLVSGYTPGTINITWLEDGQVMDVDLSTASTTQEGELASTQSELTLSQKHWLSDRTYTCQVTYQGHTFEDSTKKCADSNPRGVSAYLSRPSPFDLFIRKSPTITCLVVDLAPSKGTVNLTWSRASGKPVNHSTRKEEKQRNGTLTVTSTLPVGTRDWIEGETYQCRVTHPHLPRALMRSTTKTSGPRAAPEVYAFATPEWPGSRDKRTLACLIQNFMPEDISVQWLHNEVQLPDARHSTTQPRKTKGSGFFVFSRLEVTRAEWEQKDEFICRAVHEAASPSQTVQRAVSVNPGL
Sequence of mixture of three Der p 2 specific recombinant human IgE clones H10, H12, P4E (human) (P01854 other isoform, or with tags, fused parts or gaps): as the sequence (P01854 1-428) above, with L428K counted along it

B1: CIgG4F6A1(G4S)3 (Fc fusion)
chain 1: GPPCPPCPAPEFLGGPSVFLFPPKPKDTLMISRTPEVTCVVVDVSQEDPEVQFNWYVDGVEVHNAKTKPREEQFNSTYRVVSVLTVLHQDWLNGKEYKCKVSNKGLPSSIEKTISKAKGQPREPQVYTLPPCQEEMTKNQVSLWCLVKGFYPSDIAVEWESNGQPENNYKTTPPVLDSDGSFFLYSRLTVDKSRWQEGNVFSCSVMHEALHNHYTQKSLSLSLGKGGGGSGGGGSGGGGSDVQLQESGGGLVQAGGSLRLSCAASGLTFGSYDMGWYRQAPGKQRELVGRIRNDGITYYADSVKGRFTMSRDNAKNTVYLQMNSLKPEDTAVYYCAADGTGLGHYDYWGQGTQVTVS
chain 2: GPPCPPCPAPEFLGGPSVFLFPPKPKDTLMISRTPEVTCVVVDVSQEDPEVQFNWYVDGVEVHNAKTKPREEQFNSTYRVVSVLTVLHQDWLNGKEYKCKVSNKGLPSSIEKTISKAKGQPREPQVCTLPPSQEEMTKNQVSLSCAVKGFYPSDIAVEWESNGQPENNYKTTPPVLDSDGSFFLVSRLTVDKSRWQEGNVFSCSVMHEALHNHYTQKSLSLSLGKGGGGSGGGGSGGGGSEVQLLESGGGLVQPGGSLRLSCAASGFTFGNYDMAWVRQAPGKRPEWVSSIDTGGDITHYADSVKGRFTISRDNAKNTLYLQMNSLRPEDTAVYWCATDEEYALGPNEFDYYGQGTLVTVSS
Take B1: in test [1], the EC50 was found to be 7.9 nM and the Max effect/effect 1 µM turned out to be 90%.

B2: CIgG4B1A1(RS) (Fc fusion)
chain 1: GPPCPPCPAPEFLGGPSVFLFPPKPKDTLMISRTPEVTCVVVDVSQEDPEVQFNWYVDGVEVHNAKTKPREEQFNSTYRVVSVLTVLHQDWLNGKEYKCKVSNKGLPSSIEKTISKAKGQPREPQVYTLPPCQEEMTKNQVSLWCLVKGFYPSDIAVEWESNGQPENNYKTTPPVLDSDGSFFLYSRLTVDKSRWQEGNVFSCSVMHEALHNHYTQKSLSLSLGKRSQVQLQESGGGLVQTGGSLRLSCAVHGRTFSNTGMGWFRQAPGNERQFVAIISPSGTSTYYADSVKGRFTISRDPAKNTVYLQMNSLKMDDTAVYYCAASYGSNWSTLRHQRRNEYDAWGQGTQVAVS
chain 2: GPPCPPCPAPEFLGGPSVFLFPPKPKDTLMISRTPEVTCVVVDVSQEDPEVQFNWYVDGVEVHNAKTKPREEQFNSTYRVVSVLTVLHQDWLNGKEYKCKVSNKGLPSSIEKTISKAKGQPREPQVCTLPPSQEEMTKNQVSLSCAVKGFYPSDIAVEWESNGQPENNYKTTPPVLDSDGSFFLVSRLTVDKSRWQEGNVFSCSVMHEALHNHYTQKSLSLSLGKRSEVQLLESGGGLVQPGGSLRLSCAASGFTFGNYDMAWVRQAPGKRPEWVSSIDTGGDITHYADSVKGRFTISRDNAKNTLYLQMNSLRPEDTAVYWCATDEEYALGPNEFDYYGQGTLVTVSS
On to B2, for which the EC50 (read off the curve) in test [2] was 10 nM. Also, in test [1], the concentration giving a half-maximal response (EC50) amounted to 84.9 nM and the Max effect/effect 1 µM amounted to 92%. Besides, in test [3], the EC50 (read off the curve) was 20 nM.

B3: CIgG4B1A1(G4S)1 (Fc fusion)
chain 1: GPPCPPCPAPEFLGGPSVFLFPPKPKDTLMISRTPEVTCVVVDVSQEDPEVQFNWYVDGVEVHNAKTKPREEQFNSTYRVVSVLTVLHQDWLNGKEYKCKVSNKGLPSSIEKTISKAKGQPREPQVYTLPPCQEEMTKNQVSLWCLVKGFYPSDIAVEWESNGQPENNYKTTPPVLDSDGSFFLYSRLTVDKSRWQEGNVFSCSVMHEALHNHYTQKSLSLSLGKGGGGSQVQLQESGGGLVQTGGSLRLSCAVHGRTFSNTGMGWFRQAPGNERQFVAIISPSGTSTYYADSVKGRFTISRDPAKNTVYLQMNSLKMDDTAVYYCAASYGSNWSTLRHQRRNEYDAWGQGTQVAVS
chain 2: GPPCPPCPAPEFLGGPSVFLFPPKPKDTLMISRTPEVTCVVVDVSQEDPEVQFNWYVDGVEVHNAKTKPREEQFNSTYRVVSVLTVLHQDWLNGKEYKCKVSNKGLPSSIEKTISKAKGQPREPQVCTLPPSQEEMTKNQVSLSCAVKGFYPSDIAVEWESNGQPENNYKTTPPVLDSDGSFFLVSRLTVDKSRWQEGNVFSCSVMHEALHNHYTQKSLSLSLGKGGGGSEVQLLESGGGLVQPGGSLRLSCAASGFTFGNYDMAWVRQAPGKRPEWVSSIDTGGDITHYADSVKGRFTISRDNAKNTLYLQMNSLRPEDTAVYWCATDEEYALGPNEFDYYGQGTLVTVSS
B3 gave a concentration for a half-maximal effect (EC50 (read off the curve)) in test [2] of 4 nM. Also, in test [1], the EC50 stood at 22.4 nM and the Max effect/effect 1 µM came to 99%. Besides, in test [3], the EC50 (read off the curve) came to 4 nM.

B4: CIgG4F6A1(G4S)1 (Fc fusion)
chain 1: GPPCPPCPAPEFLGGPSVFLFPPKPKDTLMISRTPEVTCVVVDVSQEDPEVQFNWYVDGVEVHNAKTKPREEQFNSTYRVVSVLTVLHQDWLNGKEYKCKVSNKGLPSSIEKTISKAKGQPREPQVYTLPPCQEEMTKNQVSLWCLVKGFYPSDIAVEWESNGQPENNYKTTPPVLDSDGSFFLYSRLTVDKSRWQEGNVFSCSVMHEALHNHYTQKSLSLSLGKGGGGSDVQLQESGGGLVQAGGSLRLSCAASGLTFGSYDMGWYRQAPGKQRELVGRIRNDGITYYADSVKGRFTMSRDNAKNTVYLQMNSLKPEDTAVYYCAADGTGLGHYDYWGQGTQVTVS
chain 2: GPPCPPCPAPEFLGGPSVFLFPPKPKDTLMISRTPEVTCVVVDVSQEDPEVQFNWYVDGVEVHNAKTKPREEQFNSTYRVVSVLTVLHQDWLNGKEYKCKVSNKGLPSSIEKTISKAKGQPREPQVCTLPPSQEEMTKNQVSLSCAVKGFYPSDIAVEWESNGQPENNYKTTPPVLDSDGSFFLVSRLTVDKSRWQEGNVFSCSVMHEALHNHYTQKSLSLSLGKGGGGSEVQLLESGGGLVQPGGSLRLSCAASGFTFGNYDMAWVRQAPGKRPEWVSSIDTGGDITHYADSVKGRFTISRDNAKNTLYLQMNSLRPEDTAVYWCATDEEYALGPNEFDYYGQGTLVTVSS
For B4, in test [1], the EC50 came to 59.9 nM and the Max effect/effect 1 µM was 95%.

B5: NIgG4B1A1(G4S)1 (Fc fusion)
chain 1: QVQLQESGGGLVQTGGSLRLSCAVHGRTFSNTGMGWFRQAPGNERQFVAIISPSGTSTYYADSVKGRFTISRDPAKNTVYLQMNSLKMDDTAVYYCAASYGSNWSTLRHQRRNEYDAWGQGTQVAVSGGGGSGPPCPPCPAPEFLGGPSVFLFPPKPKDTLMISRTPEVTCVVVDVSQEDPEVQFNWYVDGVEVHNAKTKPREEQFNSTYRVVSVLTVLHQDWLNGKEYKCKVSNKGLPSSIEKTISKAKGQPREPQVYTLPPCQEEMTKNQVSLWCLVKGFYPSDIAVEWESNGQPENNYKTTPPVLDSDGSFFLYSRLTVDKSRWQEGNVFSCSVMHEALHNHYTQKSLSLSLGK
chain 2: EVQLLESGGGLVQPGGSLRLSCAASGFTFGNYDMAWVRQAPGKRPEWVSSIDTGGDITHYADSVKGRFTISRDNAKNTLYLQMNSLRPEDTAVYWCATDEEYALGPNEFDYYGQGTLVTVSSGGGGSGPPCPPCPAPEFLGGPSVFLFPPKPKDTLMISRTPEVTCVVVDVSQEDPEVQFNWYVDGVEVHNAKTKPREEQFNSTYRVVSVLTVLHQDWLNGKEYKCKVSNKGLPSSIEKTISKAKGQPREPQVCTLPPSQEEMTKNQVSLSCAVKGFYPSDIAVEWESNGQPENNYKTTPPVLDSDGSFFLVSRLTVDKSRWQEGNVFSCSVMHEALHNHYTQKSLSLSLGK
On to B5, for which the concentration giving a half-maximal response (EC50 (read off the curve)) in test [2] was 4 nM. In test [1], the EC50 turned out to be 3 nM and the Max effect/effect 1 µM came out at 99%. In test [3], this molecule registered an EC50 (read off the curve) of 3 nM.

B6: CIgG4B1A1(G4S)2 (Fc fusion)
chain 1: GPPCPPCPAPEFLGGPSVFLFPPKPKDTLMISRTPEVTCVVVDVSQEDPEVQFNWYVDGVEVHNAKTKPREEQFNSTYRVVSVLTVLHQDWLNGKEYKCKVSNKGLPSSIEKTISKAKGQPREPQVYTLPPCQEEMTKNQVSLWCLVKGFYPSDIAVEWESNGQPENNYKTTPPVLDSDGSFFLYSRLTVDKSRWQEGNVFSCSVMHEALHNHYTQKSLSLSLGKGGGGSGGGGSQVQLQESGGGLVQTGGSLRLSCAVHGRTFSNTGMGWFRQAPGNERQFVAIISPSGTSTYYADSVKGRFTISRDPAKNTVYLQMNSLKMDDTAVYYCAASYGSNWSTLRHQRRNEYDAWGQGTQVAVS
chain 2: GPPCPPCPAPEFLGGPSVFLFPPKPKDTLMISRTPEVTCVVVDVSQEDPEVQFNWYVDGVEVHNAKTKPREEQFNSTYRVVSVLTVLHQDWLNGKEYKCKVSNKGLPSSIEKTISKAKGQPREPQVCTLPPSQEEMTKNQVSLSCAVKGFYPSDIAVEWESNGQPENNYKTTPPVLDSDGSFFLVSRLTVDKSRWQEGNVFSCSVMHEALHNHYTQKSLSLSLGKGGGGSGGGGSEVQLLESGGGLVQPGGSLRLSCAASGFTFGNYDMAWVRQAPGKRPEWVSSIDTGGDITHYADSVKGRFTISRDNAKNTLYLQMNSLRPEDTAVYWCATDEEYALGPNEFDYYGQGTLVTVSS
As for B6, the EC50 (read off the curve) in test [2] was determined as 4 nM. Further, in test [1], the EC50 worked out at 19.5 nM and the Max effect/effect 1 µM came out at 99%. Further, the EC50 (read off the curve) in test [3] stood at 3 nM.

B7: CIgG4F6A1(G4S)2 (Fc fusion)
chain 1: GPPCPPCPAPEFLGGPSVFLFPPKPKDTLMISRTPEVTCVVVDVSQEDPEVQFNWYVDGVEVHNAKTKPREEQFNSTYRVVSVLTVLHQDWLNGKEYKCKVSNKGLPSSIEKTISKAKGQPREPQVYTLPPCQEEMTKNQVSLWCLVKGFYPSDIAVEWESNGQPENNYKTTPPVLDSDGSFFLYSRLTVDKSRWQEGNVFSCSVMHEALHNHYTQKSLSLSLGKGGGGSGGGGSDVQLQESGGGLVQAGGSLRLSCAASGLTFGSYDMGWYRQAPGKQRELVGRIRNDGITYYADSVKGRFTMSRDNAKNTVYLQMNSLKPEDTAVYYCAADGTGLGHYDYWGQGTQVTVS
chain 2: GPPCPPCPAPEFLGGPSVFLFPPKPKDTLMISRTPEVTCVVVDVSQEDPEVQFNWYVDGVEVHNAKTKPREEQFNSTYRVVSVLTVLHQDWLNGKEYKCKVSNKGLPSSIEKTISKAKGQPREPQVCTLPPSQEEMTKNQVSLSCAVKGFYPSDIAVEWESNGQPENNYKTTPPVLDSDGSFFLVSRLTVDKSRWQEGNVFSCSVMHEALHNHYTQKSLSLSLGKGGGGSGGGGSEVQLLESGGGLVQPGGSLRLSCAASGFTFGNYDMAWVRQAPGKRPEWVSSIDTGGDITHYADSVKGRFTISRDNAKNTLYLQMNSLRPEDTAVYWCATDEEYALGPNEFDYYGQGTLVTVSS
B7: in test [1], the half-maximal effective concentration (EC50) was determined as 16.6 nM and the Max effect/effect 1 µM turned out to be 98%.

Values taken from patent US20250171562A1.
